Data published in the supplement of paper PMC7877785.
± gives the uncertainty stated by the source.

Test: self-splicing fitness, log relative to wild type (ln ratio); higher = more splicing; Tetrahymena group I intron in knt gene, E. coli kanamycin selection, DiMSum; sequences stand for … in CUCUCU…GGAGGGAAAAGUUAUCAGGCAUGCACCUGGUAGCUAGUCUUUAAACCAAUAGAUUGCAUCGGUUUAAAAGGCAAGACCGUCAAAUUGCGGGAAAGGGGUCAACAGCCGUUCAGUACCAAGUCUCAGGGGAAACUUUGAGAUGGCCUUGCAAAGGGUAUGGUAAUAAGCUGACGGACAUGGUCCUAACCACGCAGCCAAGUCCUAAGUCAACAGAUCUUCUGUUGAUAUGGAUGCAGUUCACAGACUAAAUGUCGGUCGGGGAAGAUGUAUUCUUCUCAUAAGAUAUAGUCGGACCUCUCCUUAAUGGGAGCUAGCGGAUGAAGUGAUGCAACACUGGAGCCGCUGGGAACUAAUUUGUAUGCGAAAGUAUAUUGAUUAGUUUUGGAGUACUCGUGGUCG
In short: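 The eight P1ex-region nucleotides of an intron in the knt kanamycin-resistance gene on pET-22b(+) were all randomised and the library put into E. coli BL21(DE3). Six replicate transformations were grown overnight at 37°C or 30°C on LB agar with or without 25 μg/mL kanamycin, together with 100 μg/mL carbenicillin, 50 μM IPTG and 0.2% rhamnose. Colonies were pooled and amplicon-sequenced on an Illumina HiSeq 2500. Fitness from DiMSum is the error-weighted combination of wild-type-normalised replicate fold changes, kanamycin over none.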

Row | Sequence | self-splicing fitness (ln) (30 °C) | self-splicing fitness (ln) (37 °C)
1 | CACCAGCAAUAUUACGACUG | -0.642 ± 0.054 | 0.144 ± 0.073
2 | CACCAGCAAUAUUACGAGAC |  | -2.02 ± 0.32
3 | CACCAGCAAUAUUACGAUAC | -3.58 ± 0.23 | -1.94 ± 0.19
4 | CACCAGCAAUAUUACGCACC | -3.63 ± 0.47 | -2.31 ± 0.34
5 | CACCAGCAAUAUUACGCCGA | -2.88 ± 0.19 | -1.86 ± 0.21
6 | CACCAGCAAUAUUACGCCUG | -1.11 ± 0.076 | -0.247 ± 0.097
7 | CACCAGCAAUAUUACGCUCU | -3.85 ± 0.2 | -1.48 ± 0.15
8 | CACCAGCAAUAUUACGGACG | -0.37 ± 0.058 | 0.374 ± 0.08
9 | CACCAGCAAUAUUACGGAGA | -1.66 ± 0.11 | -2.16 ± 0.14
10 | CACCAGCAAUAUUACGGCAC | -2.38 ± 0.12 | -1.09 ± 0.11
11 | CACCAGCAAUAUUACGGUCC | -0.606 ± 0.074 | -0.037 ± 0.11
12 | CACCAGCAAUAUUACGGUUU | -0.79 ± 0.045 | -0.0932 ± 0.065
13 | CACCAGCAAUAUUACGUCAG | -0.342 ± 0.051 | 0.0517 ± 0.067
14 | CACCAGCAAUAUUACGUGAU | -3.47 ± 0.12 | -3 ± 0.19
15 | CACCAGCAAUAUUACGUUCU | -3.76 ± 0.17 | -2.65 ± 0.14
16 | CACGAGCAAUAUUACGAAAG | -3.34 ± 0.3 | -2.22 ± 0.36
17 | CACGAGCAAUAUUACGAAGA | -2.89 ± 0.22 | -3.38 ± 0.27
18 | CACGAGCAAUAUUACGACGA | -3.66 ± 0.48 | -2.24 ± 0.26
19 | CACGAGCAAUAUUACGAGAU | -4.36 ± 0.32 | -3.09 ± 0.26
20 | CACGAGCAAUAUUACGAGCA | -4.24 ± 0.39 | -3.46 ± 0.4
21 | CACGAGCAAUAUUACGAGGU | -4.07 ± 0.28 | -3.23 ± 0.28
22 | CACGAGCAAUAUUACGCCCU | -2.92 ± 0.3 | 
23 | CACGAGCAAUAUUACGCGAG | -1.52 ± 0.17 | -2.5 ± 0.26
24 | CACGAGCAAUAUUACGCGUU | -4.28 ± 0.47 | -2.1 ± 0.18

Row | Sequence | self-splicing fitness (ln) (30 °C) | self-splicing fitness (ln) (37 °C)
25 | CACGAGCAAUAUUACGCUGU | -3.55 ± 0.18 | -3.31 ± 0.18
26 | CACGAGCAAUAUUACGGAAA | -2.33 ± 0.22 | -1.8 ± 0.19
27 | CACGAGCAAUAUUACGGCCU | -4.34 ± 0.36 | -3.06 ± 0.3
28 | CACGAGCAAUAUUACGGCGG | -2.37 ± 0.092 | -1.14 ± 0.11
29 | CACGAGCAAUAUUACGGGCC | -3.08 ± 0.38 | -2.24 ± 0.31
30 | CACGAGCAAUAUUACGGGGC | -3.02 ± 0.14 | -2.42 ± 0.19
31 | CACGAGCAAUAUUACGGGGU | -4.09 ± 0.23 | -2.67 ± 0.16
32 | CACGAGCAAUAUUACGGGUC | -4.31 ± 0.26 | -1.99 ± 0.15
33 | CACGAGCAAUAUUACGGUAC | -2.69 ± 0.21 | -2.81 ± 0.3
34 | CACGAGCAAUAUUACGUACG | -2.38 ± 0.14 | -0.807 ± 0.15
35 | CACGAGCAAUAUUACGUCCU | -3.93 ± 0.3 | -2.81 ± 0.29
36 | CACGAGCAAUAUUACGUGAA | -3.63 ± 0.14 | -2.49 ± 0.12
37 | CACGAGCAAUAUUACGUUAG | -2.94 ± 0.16 | -2.64 ± 0.18
38 | CACGAGCAAUAUUACGUUCG | -4.18 ± 0.29 | -2.75 ± 0.21
39 | CACUAGCAAUAUUACGAACA | -3.04 ± 0.42 | -2.83 ± 0.3
40 | CACUAGCAAUAUUACGAAUC | -3.91 ± 0.19 | -2.58 ± 0.22
41 | CACUAGCAAUAUUACGAGGU | -5.22 ± 0.45 | -2.6 ± 0.23
42 | CACUAGCAAUAUUACGAGUU | -1.83 ± 0.085 | -0.633 ± 0.093
43 | CACUAGCAAUAUUACGAUAG | -0.974 ± 0.1 | -0.493 ± 0.11
44 | CACUAGCAAUAUUACGAUCC | -2.56 ± 0.33 | -1.91 ± 0.34
45 | CACUAGCAAUAUUACGAUGC | -3.76 ± 0.18 | -3.05 ± 0.19
46 | CACUAGCAAUAUUACGAUGG | -0.786 ± 0.062 | -0.324 ± 0.084
47 | CACUAGCAAUAUUACGCAGC | -3.17 ± 0.31 | -2.28 ± 0.37
48 | CACUAGCAAUAUUACGCCAU | -3.88 ± 0.44 | -2.45 ± 0.28

Row | Sequence | self-splicing fitness (ln) (30 °C) | self-splicing fitness (ln) (37 °C)
49 | CACUAGCAAUAUUACGCCGU | -1.95 ± 0.35 | -1.18 ± 0.35
50 | CACUAGCAAUAUUACGCCUA | -3.31 ± 0.19 | -2.36 ± 0.16
51 | CACUAGCAAUAUUACGCCUC |  | -1.72 ± 0.23
52 | CACUAGCAAUAUUACGCGUA | -1.84 ± 0.093 | -0.0161 ± 0.075
53 | CACUAGCAAUAUUACGCGUC | -1.84 ± 0.1 | -2.75 ± 0.21
54 | CACUAGCAAUAUUACGCUUA | -2.65 ± 0.21 | -1.2 ± 0.13
55 | CACUAGCAAUAUUACGGCUA | -3.46 ± 0.47 | -2.1 ± 0.32
56 | CACUAGCAAUAUUACGGUCC | -2.4 ± 0.12 | -1.29 ± 0.15
57 | CACUAGCAAUAUUACGUAAG | 0.264 ± 0.061 | 0.0438 ± 0.073
58 | CACUAGCAAUAUUACGUAGG | -1.04 ± 0.1 | -0.696 ± 0.14
59 | CACUAGCAAUAUUACGUCAG | -0.817 ± 0.062 | 0.566 ± 0.071
60 | CACUAGCAAUAUUACGUCGC | -3.66 ± 0.24 | -2.66 ± 0.27
61 | CACUAGCAAUAUUACGUGGC | -3.89 ± 0.23 | -3.28 ± 0.2
62 | CACUAGCAAUAUUACGUUAC | -3.4 ± 0.14 | -2.77 ± 0.16
63 | CAGAAGCAAUAUUACGACUA | 0.00435 ± 0.063 | 0.187 ± 0.081
64 | CAGAAGCAAUAUUACGAUGA | -2.08 ± 0.12 | -0.735 ± 0.086
65 | CAGAAGCAAUAUUACGAUUU | -2.06 ± 0.096 | -1.16 ± 0.11
66 | CAGAAGCAAUAUUACGCAAA | -3.57 ± 0.35 | -1.81 ± 0.26
67 | CAGAAGCAAUAUUACGCCAC |  | -0.904 ± 0.4
68 | CAGAAGCAAUAUUACGCCAU | -2.66 ± 0.14 | -2.77 ± 0.18
69 | CAGAAGCAAUAUUACGCCGA | -3.49 ± 0.41 | -2.75 ± 0.33
70 | CAGAAGCAAUAUUACGCGAC |  | -2.94 ± 0.32
71 | CAGAAGCAAUAUUACGCGAG | -2.62 ± 0.097 | -1.49 ± 0.096
72 | CAGAAGCAAUAUUACGGAGC | -3.14 ± 0.34 | -2.32 ± 0.31

Row | Sequence | self-splicing fitness (ln) (30 °C) | self-splicing fitness (ln) (37 °C)
73 | CAGAAGCAAUAUUACGGAUG | -2.75 ± 0.17 | -2.6 ± 0.21
74 | CAGAAGCAAUAUUACGGCCG | -0.0187 ± 0.082 | -0.102 ± 0.14
75 | CAGAAGCAAUAUUACGGUCU | -1.52 ± 0.064 | -1.09 ± 0.082
76 | CAGAAGCAAUAUUACGUACA | -2.14 ± 0.11 | -0.932 ± 0.12
77 | CAGAAGCAAUAUUACGUAUU | -3.79 ± 0.23 | -2.28 ± 0.15
78 | CAGAAGCAAUAUUACGUCGC | -3.55 ± 0.23 | -2.76 ± 0.28
79 | CAGAAGCAAUAUUACGUGCA | -2.49 ± 0.14 | -1.75 ± 0.14
80 | CAGCAGCAAUAUUACGAACU | -2.68 ± 0.16 | -2.11 ± 0.14
81 | CAGCAGCAAUAUUACGACGU | -0.896 ± 0.076 | -0.529 ± 0.079
82 | CAGCAGCAAUAUUACGAGCU | -3.07 ± 0.21 | -1.76 ± 0.2
83 | CAGCAGCAAUAUUACGCAUC | -2.71 ± 0.12 | -1.16 ± 0.1
84 | CAGCAGCAAUAUUACGCCAU | -3.12 ± 0.24 | -1.78 ± 0.21
85 | CAGCAGCAAUAUUACGCCUC | -1.98 ± 0.13 | -0.839 ± 0.14
86 | CAGCAGCAAUAUUACGCGGU | -1.52 ± 0.1 | -1.74 ± 0.18
87 | CAGCAGCAAUAUUACGCGUU | -3.04 ± 0.14 | -2.45 ± 0.17
88 | CAGCAGCAAUAUUACGCUUC | -3.43 ± 0.19 | -2.63 ± 0.28
89 | CAGCAGCAAUAUUACGCUUG | -2.88 ± 0.12 | -2.61 ± 0.19
90 | CAGCAGCAAUAUUACGCUUU | -2.76 ± 0.14 | -1.63 ± 0.12
91 | CAGCAGCAAUAUUACGGAAC | -1.79 ± 0.3 | -1.87 ± 0.44
92 | CAGCAGCAAUAUUACGGAAU | -4.16 ± 0.24 | -1.95 ± 0.16
93 | CAGCAGCAAUAUUACGGACG | -0.284 ± 0.069 | -0.581 ± 0.081
94 | CAGCAGCAAUAUUACGGAGC | -3.3 ± 0.33 | -2.68 ± 0.39
95 | CAGCAGCAAUAUUACGGCAC | -3.25 ± 0.15 | -0.851 ± 0.17
96 | CAGCAGCAAUAUUACGGGAU | -4.61 ± 0.22 | -2.35 ± 0.12
